The values that follow come from patent CN108840930A (SHENGYAN MEDICINE TECH WUHAN CO LTD, dated 2018).

For the assay, the target named is 抗体-Fc融合蛋白scFv-3B5-Fc (anti-human CD19 scFv 3B5 fused to human IgG1 Fc) (human, UniProt P01857 99-330 = IgG part). Put plainly: concentration-gradient ELISA, Fc-CD19 coated at 100 ng/well, goat anti-human-HRP detection, nonlinear fit (b = KD). (In general: An ELISA detects its analyte on a solid surface through an enzyme-linked reagent.)

B1: 人Fc-CD19重组蛋白 (recombinant human Fc-CD19, bought from Acrobiosystems) (Fc fusion, UniProt P15391 20-291, looked up)
chain: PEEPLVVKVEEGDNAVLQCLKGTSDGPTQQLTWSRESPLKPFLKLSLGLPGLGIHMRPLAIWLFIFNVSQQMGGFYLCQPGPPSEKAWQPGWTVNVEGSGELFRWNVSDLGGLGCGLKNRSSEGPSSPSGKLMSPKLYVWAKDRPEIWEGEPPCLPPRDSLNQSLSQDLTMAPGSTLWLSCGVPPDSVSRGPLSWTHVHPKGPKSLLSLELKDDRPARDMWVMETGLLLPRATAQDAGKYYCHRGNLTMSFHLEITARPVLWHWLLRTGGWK
notes: Bought reagent; the order here follows the printed name Fc-CD19; also called Fc-CD19重组抗原; 重组人CD19抗原; not shown: Fc part of the bought Fc-CD19 fusion
B1 registered a Kd of 0.475 nM.

In general, Kd refers to the equilibrium constant for the complex coming apart. Higher therefore signals a looser complex.
